Test results as given in publication PMC7054686, “A revised model of TRAIL‐R2 DISC assembly explains how FLIP(L) can inhibit or promote apoptosis” (EMBO Reports, 2020).

Target: recombinant FLIP DED1/2 (amino acids 1–184) with a C‐terminal His‐tag (UniProt O15519 1-184)
Test: AlphaScreen or HTRF; cell-free AlphaScreen: FLIP DED1/2-His on nickel chelate acceptor beads, GST-FADD DED on glutathione donor beads; 25 mM Tris pH 7.5, 300 mM NaCl, 0.0007% Tween-20, 0.05% BSA; room temperature; 25 μl in 384-well plate
Conditions: both partners purified

B1: recombinant FADD DED (amino acids 1–90) with an N‐terminal GST‐tag (domain or fragment)
chain: MDPFLVLLHSVSSSLSSSELTELKFLCLGRVGKRKLERVQSGLDLFSMLLEQNDLEPGHTELLRELLASLRRHDLLRRVDDFEAGAAAGA
notes: FADD, death effector domain, amino acids 1-90; Held by glutathione donor beads in the AlphaScreen; source: recombinant; not shown: GST, N-terminal, kept
binding result: binds
